One block for each substance: values may come before it.
How the values were obtained:
[1] = target: human receptor for advanced glycation endproducts (RAGE) on A375-hRAGE cells (human) (UniProt Q15109)
[2] = target: receptor for advanced glycation endproducts (RAGE) on wild-type A375 cells (human (endogenous in A375)) (UniProt Q15109)
[3] = target: extracellular S100A4 secreted by A375-hS100A4 cells (human) (UniProt P26447)
[4] = target: extracellular S100A4 secreted by A375 cells (human (endogenous in A375)) (UniProt P26447)

decrease of invasion of A375-hRAGE cells (Boyden chamber with Matrigel) with blocking anti-RAGE antibody (10 μg/ml; R&D), against untreated cells [1]: 15%
decrease of migration of A375-hRAGE cells (Boyden chamber) with blocking anti-RAGE antibody (10 μg/ml; R&D), against untreated cells [1]: 10%
Substance: extracellular S100A4 secreted by A375 cells (from UniProt P26447 1-101) (natural protein)

increase of invasion of A375-hRAGE cells (Boyden chamber with Matrigel) with recombinant S100A4 (3000 ng/ml), against untreated cells [1]: 13%
increase of migration of A375-hRAGE cells (Boyden chamber) with recombinant S100A4 (3000 ng/ml), against untreated cells [1]: 23%
increase of invasion of A375 cells (Boyden chamber with Matrigel) with recombinant S100A4 (150 ng/ml), against untreated cells [2]: 21%
increase of migration of A375 cells (Boyden chamber) with recombinant S100A4 (150 ng/ml), against untreated cells [2]: 36%
Substance: recombinant human S100A4 (from UniProt P26447 1-101) (natural protein)

decrease of invasion of A375-hS100A4 cells (Boyden chamber with Matrigel) with sRAGE (150 ng/ml), against untreated cells; blocks extracellular S100A4 from membrane RAGE [3]: 15%
decrease of migration of A375-hS100A4 cells (Boyden chamber) with sRAGE (150 ng/ml), against untreated cells; blocks extracellular S100A4 from membrane RAGE [3]: 24%
relative migration of A375 cells (Boyden chamber) with sRAGE (150 ng/ml), untreated cells set as 100%; blocks extracellular S100A4 from membrane RAGE [4]: 63%
Substance: soluble RAGE (sRAGE) (domain or fragment)

Reference: publication PMC4831350
